Data published in publication PMC7353009, “Identification of Substrates of Cytoplasmic Peptidyl-Prolyl Cis/Trans Isomerases and Their Collective Essentiality in Escherichia Coli” (International Journal of Molecular Sciences, 2020).
Residue numbers refer to the chain shown, from its start. Values joined by “and” are separate entries in the source; they are usually repeats but may differ in a detail not shown here. Identical values can stand only once.

T1: Hexa-His-tagged FkpB (wild type) (E. coli, UniProt P0AEM0 1-149)
T1 chain: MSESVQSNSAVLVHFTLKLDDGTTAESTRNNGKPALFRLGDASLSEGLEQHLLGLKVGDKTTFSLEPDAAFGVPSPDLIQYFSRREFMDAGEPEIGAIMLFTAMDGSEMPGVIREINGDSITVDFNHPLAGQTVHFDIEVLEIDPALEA

T2: Hexa-His-tagged PpiC F81A (E. coli)
T2 chain: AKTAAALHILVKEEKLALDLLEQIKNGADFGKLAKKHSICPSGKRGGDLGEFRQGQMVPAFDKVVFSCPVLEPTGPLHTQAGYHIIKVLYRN

T3: Hexa-His-tagged PpiC M57A (E. coli)
T3 chain: T2 chain with M57A, A81F

B1: Hexa-His-tagged FkpB (wild type) (enzyme, E. coli, UniProt P0AEM0 1-149, looked up)
chain: T1 chain
notes: FkpB, FKBP-type peptidyl-prolyl cis/trans isomerase, E. coli; minimal coding region of the fkpB gene in pET24b; also called wild-type FkpB; source: E. coli T7 express derivative lacking all six PPIs (SR21984), IPTG-induced; in lysate on Ni-NTA for co-elution; purified (Ni-NTA) for ITC; not shown: His6, C-terminal, kept
B2: AhpC-derived peptide (peptide)
peptide: RATFVVDPQGI
notes: peptide from AhpC (alkyl hydroperoxide reductase subunit C), E. coli; also called AhpC peptide
B3: RseA peptide Rse1 (peptide, UniProt P0AFX7 2-29, looked up)
peptide: QKEQLSALMDGETLDSELLNELAHNPEM
notes: peptide corresponding to amino acid 2-29 of N-RseA (N-terminal domain of the anti-sigma factor RseA), E. coli
B4: RpoE peptide P4 (peptide)
peptide: AAIMDCPVGTVRSRI
notes: peptide derived from conserved region 4 of RpoE, E. coli
B5: RpoE peptide P3 (peptide)
peptide: FRAREAIDNKVQPLIRR
notes: peptide covering conserved region 4 of RpoE, E. coli, including R178
B6: RpoE peptide P2 (peptide)
peptide: KVASLVSRYVPSGDV
notes: peptide derived from conserved region 2 of RpoE, E. coli
B7: RpoE peptide P1 (peptide)
peptide: YLVAQGRRPPSSDVD
notes: peptide corresponding to the C-terminal end of conserved region 2.4 of RpoE, E. coli
B8: RseA peptide Rse3 (peptide)
peptide: IIEEEPVRQPATL
notes: peptide from the conserved regions of the N-terminal domain of RseA, E. coli
B9: S2-derived peptide (peptide)
chain: TRYWNPKMKPFIFGA
modifications: This paper prints neither letters nor limits. Limits 20-34 are recalled from the SlyD/FKBP S2 peptide of the cited work (ref. 12), as are the check residues. Terminal modifications unknown.
B10: Hexa-His-tagged PpiC (wild type) (enzyme, E. coli, UniProt P0A9L5 1-93, looked up)
chain: MAKTAAALHILVKEEKLALDLLEQIKNGADFGKLAKKHSICPSGKRGGDLGEFRQGQMVPAFDKVVFSCPVLEPTGPLHTQFGYHIIKVLYRN
notes: PpiC, parvulin peptidyl-prolyl cis/trans isomerase, E. coli; coding region of the ppiC gene in pET24b; The tag is called cleavable; also called wt PpiC; wild-type PpiC; source: E. coli T7 express derivative lacking all six PPIs (SR21984), IPTG-induced; in lysate on Ni-NTA for co-elution; purified (Ni-NTA) for ITC; not shown: His6, C-terminal, kept

How the values were obtained:
RseA peptide Rse3 = biological target: B8; experiment: ITC; Nano ITC; 200 μM peptide in the cell titrated with 2 mM protein, 25 injections of 2 μL, 20 °C, 20 mM sodium phosphate pH 7.5, 100 mM NaCl; 1:1 binding model; details: both partners purified
AhpC-derived peptide = biological target: B2; experiment: as above; details: both partners purified
RseA peptide Rse1 = biological target: B3; experiment: as above; details: both partners purified
[1] = biological target: B1; experiment: as above; details: both partners purified
[2] = biological target: B10; experiment: as above; details: both partners purified
[3] = biological target: T1, Hexa-His-tagged FkpB (wild type); experiment: ITC
[4] = biological target: T2, Hexa-His-tagged PpiC F81A; experiment: ITC
[5] = biological target: T3, Hexa-His-tagged PpiC M57A; experiment: ITC

B1
dH (RseA peptide Rse3): -1.48 kcal/mol | stoichiometry N (AhpC-derived peptide): 0.99 | dH (RseA peptide Rse1): -2.18 kcal/mol | stoichiometry N (RseA peptide Rse1): 1

B2
Kd [1]: 47 µM | Kd [2]: 30 µM and 47.4 µM | Kd [3]: 30.3 µM | Kd [4]: 77.6 µM | Kd [5]: 68.8 µM

B3
Kd [1]: 15.1 µM

B4
Kd [1]: 10.3 µM

B5
Kd [1]: 19 µM

B6
Kd [1]: 10.7 µM

B7
Kd [1]: 38.1 µM

B8
Kd [1]: 13 µM

B9
Kd [1]: 18.8 µM

B10
stoichiometry N (AhpC-derived peptide): 0.99
